“And” between values parts separate entries of the source, which are not always exact repeats. Equal entries are not always repeated.
How the values were obtained:
healthy adults [1] = experiment: Safety and tolerability: adverse events in SAD and MAD cohorts; conditions: for Any AE (%) / Any SAE (%) / Any drug-related AE (%) / Any moderate or severe AE (%) / Dizziness, light-headedness (including postural/orthostatic dizziness, syncope, presyncope) (%) / Tachycardia/palpitations (%): SAD
Method: (§1) Subjects attended a screening visit; those who met eligibility criteria were randomly assigned to a SAD or MAD cohort (n = 10/cohort; eight active and two placebo) and received a single or multiple dose(s) of TransCon PTH, respectively, via a syringe and 31G 8‐mm needle s.c. to the abdomen. […] Multiple TransCon PTH doses administered daily for 10 days ranged from 3.5 to 24 μg PTH(1‐34)/day. Throughout drug administration and for 4 days following the final dose, subjects remained housed for laboratory tests and safety monitoring.
(§2) At screening, demographic information, medical history, and concomitant medications, vital signs with height and weight, hematology, blood chemistry (including sCa, sP, and sMg), intact endogenous PTH(1‐84), 1,25‐dihydroxyvitamin D, and urine samples were collected. In addition, a limited physical examination and electrocardiogram (ECG) were performed.
(§3) Via regular vital sign checks, physical examinations, and safety laboratory tests, subjects were also monitored for adverse events (AEs) throughout the trial, including injection site reactions (erythema, ecchymosis, edema, pruritus, and pain).

healthy adults [2] = experiment: Pharmacodynamics: 1,25-dihydroxyvitamin D; assay type: in vivo, human; conditions: healthy subjects; data not shown
healthy adults [3] = conditions: in vivo
Method: as §1, §2, §3

[4] = SAD cohorts administered TransCon PTH (n = 56)
[5] = Total of all TransCon PTH doses (3.5 to 124 μg), n = 56, number of subjects (%)
[6] = Total of all TransCon PTH doses, n = 56, at least possibly related, number of subjects (%)
[7] = single s.c. 3.5 μg, n = 8, number of subjects (% of cohort)
[8] = single s.c. 3.5 μg, n = 8, vasodilatory AEs at least possibly related to study drug, number of subjects (%)
[9] = single s.c. 12 μg, n = 8, at least possibly related, number of subjects (%)
[10] = single s.c. 12 μg, n = 8, number of subjects (% of cohort)
[11] = single s.c. 32 μg, n = 8, at least possibly related, number of subjects (%)
[12] = single s.c. 32 μg, n = 8, number of subjects (% of cohort)
[13] = single s.c. 48 μg, n = 8, at least possibly related, number of subjects (%)
[14] = single s.c. 48 μg, n = 8, number of subjects (% of cohort)
[15] = single s.c. 72 μg, n = 8, at least possibly related, number of subjects (%)
[16] = single s.c. 72 μg, n = 8, number of subjects (% of cohort)
[17] = single s.c. 100 μg, n = 8, at least possibly related, number of subjects (%)
[18] = single s.c. 100 μg, n = 8, number of subjects (% of cohort)
[19] = single s.c. 124 μg, n = 8, at least possibly related, number of subjects (%)
[20] = single s.c. 124 μg, n = 8, number of subjects (% of cohort)

## TransCon PTH: long-acting, essentially inactive prodrug: PTH(1-34) transiently bound to an inert 40 kDa mPEG carrier via a proprietary autocleaving linker
Healthy adults [1]; MAD, healthy volunteers, daily s.c. x 10 days
  maximum tolerable dose (MTD): 20 μg PTH(1-34)/day
Healthy adults [1]; SAD and MAD cohorts
  discontinuation of the trial due to an AE: No subjects
  drug-related SAEs or severe AEs: no drug‐related SAEs or severe AEs
  physical examination, ECG, standard safety laboratory tests: no safety concerns were detected
Healthy adults [1]; SAD and MAD cohorts, s.c.
  tolerability: generally well tolerated
Healthy adults [1]; [4]
  treatment-emergent AE: dizziness: 10.7%
  treatment-emergent AE: headache: 7.1%
  treatment-emergent AE: postural dizziness: 5.4%
Healthy adults [1]; SAD cohorts, up to the top dose of 124 μg PTH(1-34)
  maximum tolerable dose (MTD): No MTD was observed
Healthy adults [1]; [5]
  Any AE (%): 41.1% and 23 (41.1) %
  Any SAE (%): 1 (1.8) %
  Any drug-related AE (%): 14 (25.0) %
  Any moderate or severe AE (%): 6 (10.7) %
Healthy adults [1]; [6]
  Dizziness, light-headedness (including postural/orthostatic dizziness, syncope, presyncope) (%): 4 (7.1) %
  Tachycardia/palpitations (%): 0 (0.0) %
Healthy adults [1]; [7]
  Any AE (%): 1 (12.5) %
  Any SAE (%): 0 (0) %
  Any drug-related AE (%): 1 (12.5) %
  Any moderate or severe AE (%): 0 (0) %
Healthy adults [1]; [8]
  Dizziness, light-headedness (including postural/orthostatic dizziness, syncope, presyncope) (%): 0 (0.0) %
  Tachycardia/palpitations (%): 0 (0.0) %
Healthy adults [1]; [9]
  Dizziness, light-headedness (including postural/orthostatic dizziness, syncope, presyncope) (%): 0 (0.0) %
  Tachycardia/palpitations (%): 0 (0.0) %
Healthy adults [1]; [10]
  Any AE (%): 3 (37.5) %
  Any SAE (%): 1 (12.5) %
  Any drug-related AE (%): 1 (12.5) %
  Any moderate or severe AE (%): 1 (12.5) %
Healthy adults [1]; [11]
  Dizziness, light-headedness (including postural/orthostatic dizziness, syncope, presyncope) (%): 1 (12.5) %
  Tachycardia/palpitations (%): 0 (0.0) %
Healthy adults [1]; [12]
  Any AE (%): 3 (37.5) %
  Any SAE (%): 0 (0) %
  Any drug-related AE (%): 2 (25.0) %
  Any moderate or severe AE (%): 0 (0) %
Healthy adults [1]; [13]
  Dizziness, light-headedness (including postural/orthostatic dizziness, syncope, presyncope) (%): 0 (0.0) %
  Tachycardia/palpitations (%): 0 (0.0) %
Healthy adults [1]; [14]
  Any AE (%): 6 (75.0) %
  Any SAE (%): 0 (0) %
  Any drug-related AE (%): 5 (62.5) %
  Any moderate or severe AE (%): 2 (25.0) %
Healthy adults [1]; [15]
  Dizziness, light-headedness (including postural/orthostatic dizziness, syncope, presyncope) (%): 0 (0.0) %
  Tachycardia/palpitations (%): 0 (0.0) %
Healthy adults [1]; [16]
  Any AE (%): 2 (25.0) %
  Any SAE (%): 0 (0) %
  Any drug-related AE (%): 0 (0.0) %
  Any moderate or severe AE (%): 1 (12.5) %
Healthy adults [1]; [17]
  Dizziness, light-headedness (including postural/orthostatic dizziness, syncope, presyncope) (%): 2 (25.0) %
  Tachycardia/palpitations (%): 0 (0.0) %
Healthy adults [1]; [18]
  Any AE (%): 4 (50.0) %
  Any SAE (%): 0 (0) %
  Any drug-related AE (%): 3 (37.5) %
  Any moderate or severe AE (%): 1 (12.5) %
Healthy adults [1]; [19]
  Dizziness, light-headedness (including postural/orthostatic dizziness, syncope, presyncope) (%): 1 (12.5) %
  Tachycardia/palpitations (%): 0 (0.0) %
Healthy adults [1]; [20]
  Any AE (%): 4 (50.0) %
  Any SAE (%): 0 (0) %
  Any drug-related AE (%): 2 (25.0) %
  Any moderate or severe AE (%): 1 (12.5) %
Healthy adults [2]
  1,25-dihydroxyvitamin D levels: did not change significantly
Healthy adults [3]
  treatment-emergent AE: upper respiratory tract infections: 6%

Source: article PMC9328939, “A Randomized Double‐Blind Placebo‐Controlled First‐In‐Human Phase 1 Trial of TransCon PTH in Healthy Adults” (Journal of Bone and Mineral Research, 2020)
